According to the supplement of paper PMC12764529:
± gives the half width of the 95% confidence interval.

assay: folding stability dG unfold (combined trypsin and chymotrypsin); higher = more stable
Summary of the method: (§1)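 Bayesian fitting of sequencing counts gave K50 for each design. Unfolding free energy followed by setting this against a sequence-predicted unfolded-state K50 and a shared folded-state K50, either per protease or with trypsin and chymotrypsin combined. The designs, under 80 residues and lacking cysteine, were digested in a PA-tagged cDNA display format at 11 threefold-diluted protease concentrations and without protease, and only those with AlphaFold2 dimer inter-PAE above 15 were kept.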

| Sequence | folding stability dG unfold |
| --- | --- |
| SAGGGIEREVAPDEVVEIPIVRIEGDVAREETIEIRLPAGARIEPSGDKIRLWFPEEGKVLEIPLTELSAGG [r13_275_TrMRF] | -0.0226 ± 0.096 kcal/mol |
| SAGGSAGGSMVTIPTGTEEEVEKVIAELEKKGLKPKKVEKEGNKVTVEFPDGTKVELIIEPGKSAGGSAGGS [r20_93_JUSTAS] | 1.95 ± 0.099 kcal/mol |
| SAGWFISIKYKDPPTGRKRKISIPIPPGDPWLKELGFPSLDGLAKWLAPEMREEGHDVKDVKVEIMPPKSAG [r5_722_TrROS] | 3.75 ± 0.16 kcal/mol |
| SAGGSAGGPEYQMIPVKNVEIDEFDPNDGNVTIKFKGNGQEIKLPPDGIQSIEISPDQGWIYIRSAGGSAGG [r6_315_TrROS] | -0.273 ± 0.12 kcal/mol |
| SAGGSMITFTVTPDATVEFPDGVTVTLIPGEGKWVATAGEKEIEAPYTPLPDDTYVVTLELPEGIAASAGGS [r16_245_JUSTAS] | 0.369 ± 0.13 kcal/mol |
| SAGGGSMFSTIYDPNSNNSIEAPLLSIREEDGRPTIEYQLPDGTRVTRPLSELGAFTLTGGAGSLTLPSAGG [r13_211_JUSTAS] | 0.774 ± 0.075 kcal/mol |
| SFIRKDPDGTYVIMGRMPPNMPIEEFLENLPGFKIKDVEYQPDPENGYWYFTLVITPRGKVKIDWVPMGDSA [r9_238_TrROS] | 2 ± 0.11 kcal/mol |
| SAGGSAGGSAGAKVKVFKVRAEVKLTRTADGELVAEVTEVEIEEVEVEVRPPPPPPLPPASAGGSAGGSAGG [r11_381_TrROS_Hall] | 2.92 ± 0.35 kcal/mol |
| SAGGSAGGSPNTIEIWIQIPPGDPEKVEEIAKKLRDEGFKDIKVDEVHRNPDDSYYVEIKITVSAGGSAGGS [r12_91_TrROS] | 1.42 ± 0.083 kcal/mol |
| SAGMKKKITVKVKVKTEEEAEKLAEELEKELGLKVTVEKNEETGVYTITVEVSPEAVEALKKAGVEIESAGG [r19_306_TrROS_Hall] | 1.86 ± 0.28 kcal/mol |
| SAGGSAGGSAPKEVVVLDLKISPVPDPRYFPAEFTVYIPENGKPFPVTAVFDPEGGEVTIGSAGGSAGGSAG [r3_1_TrMRF] | 3.04 ± 0.12 kcal/mol |
| SAGSVTVTETKTEGDKETITMTRPETGETVEEKITKKNGKVKVTKTYYSPSGVKLGSSEKVLSESELLLSAG [r5_308_JUSTAS] | -0.0136 ± 0.26 kcal/mol |
| MKKVKVTITITVPEEDKEKVKELIEKLKEAVPNVKVTSVEFDEKTGKITIVVEMTEEELEELKKALKEALES [r1_443_TrROS_Hall] | 2.06 ± 0.082 kcal/mol |
| SSPMTVEELLERHPNLLVVRLPDGTVYLFDPEKETLYTVTPGTGEVTVTPLSLEELLALLPAAGHEVLPLSA [r9_721_JUSTAS] | 1.99 ± 0.11 kcal/mol |
| SAGGSAGGSGTSTKINILLPVKPGETVKLKVEVNLNSKKVLFYVDVKKNPVGNYLSATFTVTGSAGGSAGGS [r12_136_TrMRF] | 3.85 ± 0.23 kcal/mol |
| SAGGSAGGSAMKIVEWNEETGELTIELPDGTKITLKVENGEITEVKVEPLPPVPPDLPELKSAGGSAGGSAG [r3_406_TrROS_Hall] | 2.24 ± 0.24 kcal/mol |
| SAGGSAGGSAKPLTVEEIIKKLNLPPNVEIVDVKVDYGKTENKPIIVLVLKTKDKPYLPVFASAGGSAGGSA [r18_354_TrMRF] | 1.61 ± 0.17 kcal/mol |
| SAGGMIEIEYNPDQGYFRITVWPMNPKNGKPKSKEIPIPFEGDPEEALDKVKDLIDDHPGYHVDIEPYSAGG [r13_284_TrROS] | 1.05 ± 0.14 kcal/mol |
| SAGGSAGGSAGMVIERPDDKVLVILGYDPEKGKVYVAVYDPKTGEVRFKEFDNLEDEIKDSAGGSAGGSAGG [r17_300_TrMRF] | 1.91 ± 0.17 kcal/mol |
| SAGGLKDILKELGFPIKSVTVQPMPMPNGMPMRTVSITFENPNGPKFEIEVMVMPNGEVMIDIEWVKPSAGG [r13_818_TrROS] | 2.48 ± 0.22 kcal/mol |
| SAGGMPTTSSSAVKLDGGSDSVTTTTLPDGSRVVYIVSSDGKVYKATVTGGTTTWTEVKTVPPAELSSAGGS [r16_48_JUSTAS] | 2.13 ± 0.051 kcal/mol |

assay: folding stability dG unfold from trypsin proteolysis; higher = more stable
Summary of the method: as §1

| Sequence | folding stability dG unfold |
| --- | --- |
| SAGGSAGGSAGGSTITLRIEGLSKEEIEELARKLGAKVVSFDEKNKTVTIELPPGAKLLSAGGSAGGSAGGS [r4_3_TrROS_Hall] | 1.88 ± 0.054 kcal/mol |
| SAGGSAGGSAGKKKKKPKPIVLVIKVKTKEEAEKLAEKLKELGFKVEIVEKKDGYLVIKLSAGGSAGGSAGG [r17_323_TrROS_Hall] | 2.11 ± 0.12 kcal/mol |
| SALEELLKELAEKLGYPYTVLEIKKEENTYKMVIKLTKEGTPVIVDVEIEFPSSDPNVYKVKIKKIEEPSAG [r14_387_JUSTAS] | 2.8 ± 0.087 kcal/mol |
| SAGKSKPILVEITFPNGEKAKVLAVEFPNTVYVFAVVTSKDGSKYLVEAIIDVSPTKIKIFTKSYPLESAGG [r19_385_TrMRF] | 2.56 ± 0.1 kcal/mol |
| SASVTTLTFTVTYPGGETETFTVTVPNLTEEEAKALAEKLAEEIQEKSKKPGVKVEVSITRYPADDPALSAG [r14_207_JUSTAS] | 3.9 ± 0.17 kcal/mol |
| SAGSVEIKESSLPDSTIITITIPYTSPEEAPERIERLLKELGLSENVQVIEVKYEPSPPVVTVKIKIESAGG [r19_186_JUSTAS] | 2.41 ± 0.077 kcal/mol |
| SAGGKTIEVWFLFPPGMPPEEVASTIAKLLPPGFKIDVEILEVQPDPGGEDYIIFKATIYYPDDGQPISAGG [r13_12_TrROS] | 3.34 ± 0.15 kcal/mol |
| SAPPPVQTLTLTVYDPETGRLVKIEVTRRPDGTLEVRVEVVDLETNEVTTETITLPGLTLDELLKLLEEASA [r9_618_TrROS_Hall] | 3.09 ± 0.16 kcal/mol |
| SAGGSAGMMATKPVEVEVEIPPDDPEAAKERVEAEIKAAFPGPVEVETTSYDPEKGLLKVKVVIKKSAGGSA [r15_1024_JUSTAS] | -0.497 ± 0.41 kcal/mol |
| SAGGSAGGSAGGMTTVTTLETRPLPDGTTVTREVVTDENGTVVSTTVSRVSPEGVVTAESAGGSAGGSAGGS [r10_1014_JUSTAS] | -0.0113 ± 0.05 kcal/mol |
